From patent US12624112 (MABWELL SHANGHAI BIOSCIENCE, dated 2026) come the findings set out here.

Residue numbers refer to the chain shown, from its start.

T1: ST2 on KU812 cells (UniProt Q01638 19-556, limits assumed)
T1 sequence (looked up): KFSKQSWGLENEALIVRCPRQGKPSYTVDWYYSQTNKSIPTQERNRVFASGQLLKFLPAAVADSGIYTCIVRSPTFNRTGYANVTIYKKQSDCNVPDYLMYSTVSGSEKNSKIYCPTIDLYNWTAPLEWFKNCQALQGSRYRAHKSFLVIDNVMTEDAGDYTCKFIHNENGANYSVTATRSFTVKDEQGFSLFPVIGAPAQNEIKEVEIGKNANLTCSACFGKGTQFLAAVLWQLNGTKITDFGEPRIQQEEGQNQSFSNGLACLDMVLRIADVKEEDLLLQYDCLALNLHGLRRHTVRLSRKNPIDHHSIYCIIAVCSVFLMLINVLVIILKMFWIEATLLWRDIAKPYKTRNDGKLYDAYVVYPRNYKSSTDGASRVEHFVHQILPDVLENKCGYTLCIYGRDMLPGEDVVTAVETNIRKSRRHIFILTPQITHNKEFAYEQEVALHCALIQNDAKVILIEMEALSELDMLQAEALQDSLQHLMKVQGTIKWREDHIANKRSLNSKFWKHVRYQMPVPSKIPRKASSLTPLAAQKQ

T2: Cyno ST2-fc (cyno; human, UniProt A0A2K5UDB8 19-331)
T2 construct: also called cyno ST2 fused with a human IgG1 Fc tag at the C-terminus
T2 sequence: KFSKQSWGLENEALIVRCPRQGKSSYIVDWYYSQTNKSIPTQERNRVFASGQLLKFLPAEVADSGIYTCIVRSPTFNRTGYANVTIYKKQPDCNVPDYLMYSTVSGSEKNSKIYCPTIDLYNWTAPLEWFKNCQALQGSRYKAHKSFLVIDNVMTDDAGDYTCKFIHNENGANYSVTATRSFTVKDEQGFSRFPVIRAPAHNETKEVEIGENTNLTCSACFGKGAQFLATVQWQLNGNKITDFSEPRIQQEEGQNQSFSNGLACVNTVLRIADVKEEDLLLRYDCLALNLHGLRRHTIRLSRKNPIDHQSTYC

T3: Human ST2-his (human, UniProt Q01638 19-328)
T3 construct: Expressed in CHO-K1; also called human ST2 fused with a 6-histidine tag at the C-terminus
T3 sequence: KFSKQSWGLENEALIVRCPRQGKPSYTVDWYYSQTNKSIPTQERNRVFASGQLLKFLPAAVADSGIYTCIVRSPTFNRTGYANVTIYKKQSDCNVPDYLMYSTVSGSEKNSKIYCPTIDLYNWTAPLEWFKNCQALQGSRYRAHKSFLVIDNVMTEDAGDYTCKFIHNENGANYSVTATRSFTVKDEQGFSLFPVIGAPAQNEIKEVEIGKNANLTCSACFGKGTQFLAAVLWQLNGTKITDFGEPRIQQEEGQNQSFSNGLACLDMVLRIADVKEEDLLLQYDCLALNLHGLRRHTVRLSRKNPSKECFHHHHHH

B1: 5887-41H+L (antibody, V domains shown)
VH: DVQLQQSGPGLVKPSQSLSLTCTVTGYSITSDYAWDWIRQFPGNKLEWMGYIRYSGDTYYNPSLKSRISITRDTSKNQFFLQLNSVTTEDTATYYCATTMMDTMDYWGQGTSVTVSS
VL: DIVLTQSPASLTVSLGQRATISCRASKSVSTSGNSYMHWYQQKPGQPPKLLIYLASNLESGVPARFSGSGSGTDFTLNIHPVEEEDAATYYCQHSREFPLTFGAGTKLELK
notes: murine antibody
B2: 5888-116H1+L1 (antibody, V domains shown)
VH: QVQLQQSGAELVRPGASVTLSCKASGYTFTDSEMYWVRLTPVHGLEWIGAIDPETGDTAFNQKFKGKATLTADKSSSTAYMELRSLTSEDSVVYYCTRAFDNDNDDGFAYWGQGTLVTVSA
VL: QIVMTQSPAIMSASPGEKVTMTCSASSSVNYMHWYQQKSGTSPKRWIYDTSKLASGVPARFSGSGSGTSYSLTISSMEAEDAATYYCQQWSSNPLTFGAGTKLELK
notes: murine antibody
B3: 5888-153H1+L2 (antibody, V domains shown)
VH: QVQLQQSGAELVRPGASVTLSCKASGYTFTDYELHWVKQTPVHGLEWIGTIDPETGDTVYNQKFKAKAILTADKSSSTAYMEFRSLTSEDSAVCYCTRAFYNDYDDGFAYWGQGTLVTVSA
VL: B2 VL with S7T, A25V, N30S, S75N, S76N, S91N, N93S
notes: murine antibody
B4: 5887-537H3+L1 (antibody, V domains shown)
VH: QVTLKESGPGILQPSQTLSLTCSFSGFSLSTSGMGVGWIRQPSGKGLEWLAHIWWDDVKQYNPALKSRLTISKDTSSSQVFLKSASVDTADTATYYCARIGGDYDYFDFWGQGTTLTVSS
VL: DIVLTQSPASLAVSLGQRATISCRASESVEYSGTSLMQWYQQKPGQPPKLLIYVASNVESGVPARFSGSGSGTDFSLNIHPVEEDDIAMYFCQQSRKVPWTFGGGTKLEIK
notes: murine antibody; also called 5887-537H3H+L1

In the first experiment the target is T1, ST2 on KU812 cells. Nature of the experiment: cell-based or functional assay.
With B1, the “IC50, activation of KU812-NF-κB reporter gene by IL33” value (“IC50, activation” below) came to 0.00287 µg/mL and the “Relative activity (%) compared with CNTO7160, KU812-NF-κB reporter” value (from here on “Relative activity (%) … KU812-NF-κB reporter”) worked out at 41.9%.
As for B2, the “IC50, activation” value was determined as 0.206 µg/mL and the “Relative activity (%) … KU812-NF-κB reporter” value is 122%.
On the same counts, the results for B3 are 0.0495 µg/mL and 506%.
For B4, the “IC50, activation” value turned out to be 0.101 µg/mL and the “Relative activity (%) … KU812-NF-κB reporter” value came to 40.2%.

The next experiment has as its target T1, ST2 on KU812 cells. Nature of the experiment: cell-based or functional assay. The source holds these as a separate data set.
Consider B1, for which the “Maximum inhibition rate (%), KU812 IL-5 production” value came out at 79.2% and the “Relative activity (%), KU812 IL-5 production” value was 128%.
On the same counts, the results for B2 are 81.4% and 238%.
The corresponding values for B3 are 86% and 115%.
Consider B4, for which the “Maximum inhibition rate (%), KU812 IL-5 production” value was determined as 62.2% and the “Relative activity (%), KU812 IL-5 production” value came out at 767%.

The next experiment has as its target T2, Cyno ST2-fc. Nature of the experiment: ELISA, coated cyno ST2-fc. How it is done:
Cyno ST2-fc was diluted with a coating buffer to 1 μg/mL, added into 96-well plates at 50 μL/well and coated overnight at 4° C. Next day, the coated plates were taken, washed with PB ST for 3 times, and then incubated using a blocking buffer at room temperature for 1 hr. Subsequently, the plates were washed with PBST for 3 times again. Starting at 1000 ng/mL, each murine antibody was diluted 3-fold to obtain serial dilutions of 8 concentrations in total which were then added into the 96-well plates at 50 μL/well. The plates were incubated at room temperature for 1 hr, washed with PB ST for 3 times; and then a goat anti-mouse secondary antibody (1:10000) was added at 50 μL/well into the 96-well plates which subsequently were incubated at room temperature for 1 hr. The 96-well plates were washed with PB ST for 3 times, and TMB was added at 50 μL/well to develop color in dark for 10 min. Afterwards, 2 M sulfuric acid was added to stop reaction; and GD values at 450 nm were read by a microplate reader. It can be seen that the murine antibodies can bind to cyno ST2, with a binding trendency consistent with the binding to human ST2.
As for B1, a half-maximal response (EC50) required 0.0615 µg/mL and the “Relative activity (%)” value amounted to 21.9%.
On to B2, for which the EC50 – broadly, the concentration giving half of the maximal effect – is 0.0384 µg/mL and the “Relative activity (%)” value stood at 63.7%.
On the same counts, the results for B3 are 0.0303 µg/mL and 80.7%.
On the same counts, the results for B4 are 0.0171 µg/mL and 78.5%.

The target of the next experiment is T3, Human ST2-his. Nature of the experiment: ELISA, coated human ST2-his. How it is done: Human ST2-his was diluted with a coating buffer to 1 μg/mL, added into plates at 50 μL/well, and coated overnight at 4° C. Next day, the coated plates were taken, washed with PBST for 3 times, and then incubated using a blocking buffer at room temperature for 1 hr. Subsequently, the plates were washed with PBST for 3 times again. Starting at 100 ng/mL, each murine antibody was diluted 3-fold to obtain serial dilutions of 8 concentrations in total which were then added into the 96-well plates at 50 μL/well. The plates were incubated at room temperature for 1 hr, washed with PBST for 3 times; and then a goat anti-mouse secondary antibody (1:10000) was added at 50 μL/well into the 96-well plates which subsequently were incubated at room temperature for 1 hr. The 96-well plates were washed with PBST for 3 times, and TMVB was added at 50 μL/well to develop color in dark for 10 min. Afterwards, 2 M sulfuric acid was added to stop reaction; and GD values at 450 nm were read by a micro-plate reader.
In general terms: ELISA stands for enzyme-linked immunosorbent assay.
B1: a half-maximal effect (EC50) was put at 0.0266 µg/mL and the “Relative activity (%) compared with CNTO7160” value came to 97.9%.
On the same counts, the results for B2 are 0.0288 µg/mL and 63.4%.
As for B3, a half-maximal response (EC50) required 0.0209 µg/mL and the “Relative activity (%) compared with CNTO7160” value worked out at 87.4%.
The corresponding values for B4 are 0.0123 µg/mL and 72.4%.

Another experiment addresses Human ST2-fc (human) (UniProt Q01638). Nature of the experiment: competition ELISA, coated ST2-fc, competitor IL33-his.
B1: the IC50 (in general, the concentration that gives 50% inhibition) came out at 1.29 µg/mL and the Relative activity (%) compared with CNTO7160 amounted to 82.7%.
On the same counts, the results for B2 are 0.9 µg/mL and 65.2%.
The corresponding values for B3 are 0.75 µg/mL and 78.4%.
On the same counts, the results for B4 are 0.99 µg/mL and 93.5%.

The next experiment concerns the target T2, Cyno ST2-fc. Nature of the experiment: SPR Biacore X100, antibody on CM5, cyno ST2-fc analyte. The protocol: The experiment on the interactions between the anti-human ST2 antibodies and cyno ST2-fc was performed using Biacore X100, and was carried out at 25° C. in HBS-EP (1×) buffer (pH 7.4). Each antibody was immobilized on the surface of CM5 chip using an amino coupling kit. Following the antibody immobilization, a solution of cyno ST2-fc (2-fold gradient dilution from a starting concentration of 8 nM, to obtain 6 concentrations in total; the starting concentration might be increased if the signal of some sample was too low) was injected. Association was monitored for 2 min and dissociation for 10 min, and the sensor surface was regenerated by injecting a solution of glycine at pH 1.5.
A general note: Surface plasmon resonance follows binding to a sensor surface in real time, without labels.
As to B1, the dissociation constant Kd – broadly, the constant that tells how readily two partners part at equilibrium – was 0.0903 nM; the off-rate constant (koff) (in general, the first-order rate constant of dissociation) is 0.000721 s⁻¹; the kon (usually the rate constant with which the complex forms) came to 7.98e+06 M⁻¹ s⁻¹.
Consider B2, for which the dissociation constant Kd was 0.0469 nM, the off-rate constant (koff) is 0.000382 s⁻¹ and the kon was found to be 8.14e+06 M⁻¹ s⁻¹.
The corresponding values for B3 are 0.143 nM, 0.00139 s⁻¹ and 9.68e+06 M⁻¹ s⁻¹.
On the same counts, the results for B4 are 0.0807 nM, 0.000511 s⁻¹ and 6.33e+06 M⁻¹ s⁻¹.

The target of a further experiment is T3, Human ST2-his. Nature of the experiment: SPR Biacore X100, antibody on protein A, ST2-his analyte. The protocol:
On the basis of the results of the quantitative screenings of murine antibodies above together, 19 murine antibodies were selected for affinity determination and in vitro pharmacological study. The experiment on the interaction between the anti-human ST2 antibodies and human ST2-his was performed using Biacore X100, and was carried out at 25° C. in HBS-EP (1×) buffer (pH 7.4).
Each anti-human ST2 antibody was diluted to 10 nM and captured on the surface of a protein A chip (for a capture time of 60 s). […] Association was monitored for 4 min and dissociation for 10 min, and the sensor surface was regenerated by injecting a solution of glycine at pH 2.0. Data generated for kinetics and affinity assay were analyzed using BIAevaluation software.
B1 showed a Kd of 0.56 nM, a koff of 0.000613 s⁻¹ and an on-rate constant (kon) of 1.1e+06 M⁻¹ s⁻¹.
On the same counts, the results for B2 are 0.113 nM, 0.00111 s⁻¹ and 9.87e+06 M⁻¹ s⁻¹.
B3 registered an equilibrium dissociation constant (Kd) of 0.0943 nM, a koff of 0.000864 s⁻¹ and a kon of 9.17e+06 M⁻¹ s⁻¹.
On the same counts, the results for B4 are 0.168 nM, 0.00084 s⁻¹ and 5.01e+06 M⁻¹ s⁻¹.
